Measurements as given in the Human Domainome abundance scans (Beltran et al. 2025).
± gives the uncertainty stated by the source.

B1: TOX high mobility group box family member 3, residues 256 to 323; numbered along this chain, O15405 (parent)
chain: QKPVSAYALFFRDTQAAIKGQNPNATFGEVSKIVASMWDSLGEEQKQVYKRKTEAAKKEYLKALAAYR

Variants of: B1
Assay: abundance fitness (aPCA) (normalised: wild type 0, dead -1); higher = more abundant; growth selection in yeast, the domain comes from the species named
Conditions: Homo sapiens
With N24G the abundance fitness was 0.096 ± 0.056. Variant N24K has an abundance fitness of 0.016 ± 0.058. Work on N24M yielded an abundance fitness of -0.095 ± 0.058. With F11K the abundance fitness was -0.205 ± 0.091. With F11I the abundance fitness was -0.676 ± 0.43. F11W gave an abundance fitness of -0.134 ± 0.088. Work on F11A yielded an abundance fitness of -0.19 ± 0.068. Variant F11Q has an abundance fitness of -0.171 ± 0.14. F11R showed an abundance fitness of -0.139 ± 0.085. S5A showed an abundance fitness of -0.314 ± 0.066. S5R gave an abundance fitness of -0.348 ± 0.08. For S5K, the abundance fitness was -0.166 ± 0.14. For S5P, the abundance fitness was -0.458 ± 0.11. S5D gave an abundance fitness of 0.101 ± 0.074. In the case of T14C, the abundance fitness is reported as -0.781 ± 0.29. Work on T14R yielded an abundance fitness of -0.03 ± 0.065. For K32E, the abundance fitness was -0.167 ± 0.064. Work on K32P yielded an abundance fitness of -0.966 ± 0.16. In the case of K32L, the abundance fitness is reported as -0.376 ± 0.054. Work on K32N yielded an abundance fitness of 0.214 ± 0.21. Variant K32W has an abundance fitness of -0.455 ± 0.14. In the case of E59N, the abundance fitness is reported as -0.246 ± 0.15. Work on E59Y yielded an abundance fitness of -0.577 ± 0.19. For E59T, the abundance fitness was -0.083 ± 0.1. For E59Q, the abundance fitness was -0.205 ± 0.067. With E59L the abundance fitness was -0.39 ± 0.058. Work on A25V yielded an abundance fitness of -0.076 ± 0.067. In the case of A25W, the abundance fitness is reported as -0.492 ± 0.26. Work on A25C yielded an abundance fitness of -0.369 ± 0.079. With A25G the abundance fitness was -0.696 ± 0.1. A25T showed an abundance fitness of -0.363 ± 0.082. A25Y gave an abundance fitness of -0.058 ± 0.071. Variant A25R has an abundance fitness of -0.088 ± 0.052. Variant A66Y has an abundance fitness of -0.111 ± 0.12. Work on A66C yielded an abundance fitness of -0.038 ± 0.11. Variant A66F has an abundance fitness of -0.453 ± 0.08. For A66N, the abundance fitness was 0.135 ± 0.075. In the case of S36G, the abundance fitness is reported as 0.01 ± 0.053. For S36A, the abundance fitness was 0.005 ± 0.036. S36V gave an abundance fitness of -0.218 ± 0.065. Variant S36W has an abundance fitness of -0.671 ± 0.13. S36T gave an abundance fitness of 0.067 ± 0.067. Variant S36E has an abundance fitness of 0.044 ± 0.042. Work on S36Q yielded an abundance fitness of 0.164 ± 0.065. S36F gave an abundance fitness of -0.242 ± 0.12. Variant R12W has an abundance fitness of -0.587 ± 0.12. R12C showed an abundance fitness of -0.457 ± 0.16. In the case of R12Y, the abundance fitness is reported as -0.135 ± 0.19. R12I gave an abundance fitness of -0.221 ± 0.11. For R12G, the abundance fitness was -0.223 ± 0.067. R12Q gave an abundance fitness of -0.057 ± 0.094. With L61S the abundance fitness was 0.22 ± 0.049. For L61F, the abundance fitness was -0.213 ± 0.058. Variant L61I has an abundance fitness of -0.029 ± 0.062. L61Q showed an abundance fitness of 0.146 ± 0.16. L61M gave an abundance fitness of -0.138 ± 0.059. With A8L the abundance fitness was -0.235 ± 0.065. Work on A8R yielded an abundance fitness of -0.027 ± 0.044. For A8I, the abundance fitness was -0.477 ± 0.19. A8T showed an abundance fitness of -0.196 ± 0.11. A8M showed an abundance fitness of 0.219 ± 0.056. A8S showed an abundance fitness of 0.002 ± 0.065. With A8H the abundance fitness was 0.136 ± 0.17. K57S gave an abundance fitness of -0.052 ± 0.05. Work on K57G yielded an abundance fitness of -0.125 ± 0.053. In the case of K57Y, the abundance fitness is reported as -0.282 ± 0.091. Variant K57W has an abundance fitness of -0.381 ± 0.11. A35H gave an abundance fitness of 0.001 ± 0.1. Variant A35P has an abundance fitness of -0.826 ± 0.12. A35V showed an abundance fitness of -0.727 ± 0.19. In the case of V4I, the abundance fitness is reported as 0.091 ± 0.072. With V4A the abundance fitness was -0.202 ± 0.079. In the case of V4N, the abundance fitness is reported as 0.02 ± 0.1. With V4S the abundance fitness was -0.112 ± 0.057. With V4T the abundance fitness was -0.073 ± 0.079. In the case of A6Q, the abundance fitness is reported as -0.185 ± 0.17. A6Y showed an abundance fitness of -0.34 ± 0.17. Variant A6S has an abundance fitness of -0.075 ± 0.092. Variant A6F has an abundance fitness of -0.661 ± 0.16. With A6I the abundance fitness was -0.833 ± 0.37. For A6H, the abundance fitness was -0.597 ± 0.37. A6E showed an abundance fitness of 0.156 ± 0.16. With E43Q the abundance fitness was -0.002 ± 0.07. For E43S, the abundance fitness was -0.118 ± 0.051. G28I gave an abundance fitness of -0.076 ± 0.23. With G28W the abundance fitness was -0.175 ± 0.06. Work on G28H yielded an abundance fitness of -0.026 ± 0.098. In the case of G28N, the abundance fitness is reported as 0.117 ± 0.16. G28K gave an abundance fitness of -0.027 ± 0.073. For G28M, the abundance fitness was -0.179 ± 0.063. With G28S the abundance fitness was 0.013 ± 0.046. Work on K19Q yielded an abundance fitness of 0.069 ± 0.066. For K19T, the abundance fitness was -0.221 ± 0.063. For K19N, the abundance fitness was -0.557 ± 0.12. With K19V the abundance fitness was -0.122 ± 0.056. In the case of I33A, the abundance fitness is reported as -0.104 ± 0.05. With I33L the abundance fitness was -0.016 ± 0.047. Work on I33G yielded an abundance fitness of -0.402 ± 0.067. In the case of I33Y, the abundance fitness is reported as -0.174 ± 0.11. Variant S31I has an abundance fitness of -0.583 ± 0.15. S31D gave an abundance fitness of -0.105 ± 0.27. S31H showed an abundance fitness of -0.265 ± 0.11. With S31E the abundance fitness was 0.015 ± 0.082. With P23I the abundance fitness was -0.521 ± 0.17. Work on P23Y yielded an abundance fitness of -0.948 ± 0.29. L9V showed an abundance fitness of -0.224 ± 0.077. Work on L9N yielded an abundance fitness of -0.705 ± 0.41. L9E gave an abundance fitness of 0.262 ± 0.16. With L9H the abundance fitness was -0.394 ± 0.19. In the case of E54D, the abundance fitness is reported as -0.054 ± 0.068. In the case of E54F, the abundance fitness is reported as -0.193 ± 0.072. For E54C, the abundance fitness was -0.244 ± 0.084. Work on E54N yielded an abundance fitness of -0.117 ± 0.07. For E54I, the abundance fitness was -0.012 ± 0.082. For E54L, the abundance fitness was -0.102 ± 0.045. For M37K, the abundance fitness was 0.037 ± 0.065. M37F showed an abundance fitness of -0.427 ± 0.13. M37S showed an abundance fitness of -0.265 ± 0.056. Variant M37I has an abundance fitness of -0.422 ± 0.13. M37H showed an abundance fitness of -0.227 ± 0.085. With T53N the abundance fitness was -0.104 ± 0.056. T53D gave an abundance fitness of -0.022 ± 0.066. For T53A, the abundance fitness was 0.136 ± 0.053. Work on T53S yielded an abundance fitness of 0.113 ± 0.048. For T53H, the abundance fitness was 0.12 ± 0.091. T53M showed an abundance fitness of -0.046 ± 0.096. T26V showed an abundance fitness of -0.845 ± 0.11. Work on T26R yielded an abundance fitness of -0.266 ± 0.049. Work on T26D yielded an abundance fitness of 0.043 ± 0.085. In the case of T26Q, the abundance fitness is reported as -0.217 ± 0.071. T26W showed an abundance fitness of -0.811 ± 0.14. With V34Y the abundance fitness was -0.974 ± 0.22. Variant V34D has an abundance fitness of -0.541 ± 0.32. With V34R the abundance fitness was -1.01 ± 0.14. Variant V34C has an abundance fitness of -0.137 ± 0.093. In the case of V34K, the abundance fitness is reported as -0.922 ± 0.2. In the case of A17G, the abundance fitness is reported as -0.19 ± 0.079. Variant A17L has an abundance fitness of -0.071 ± 0.056. A17F gave an abundance fitness of -0.071 ± 0.075. Variant A17M has an abundance fitness of -0.169 ± 0.098. For A17T, the abundance fitness was 0.035 ± 0.062. Work on A17W yielded an abundance fitness of -0.234 ± 0.08. Work on A17V yielded an abundance fitness of 0.017 ± 0.064. Work on A17P yielded an abundance fitness of -0.472 ± 0.1. In the case of A17D, the abundance fitness is reported as -0.133 ± 0.12. In the case of K50S, the abundance fitness is reported as -0.181 ± 0.36. K50A gave an abundance fitness of -0.15 ± 0.24. Work on A56F yielded an abundance fitness of -0.548 ± 0.23. With A56M the abundance fitness was -0.063 ± 0.1. For A56L, the abundance fitness was -0.109 ± 0.037. A56K showed an abundance fitness of 0.17 ± 0.071. Work on A56Q yielded an abundance fitness of -0.017 ± 0.07. Q15M showed an abundance fitness of -0.068 ± 0.078. Work on Q15L yielded an abundance fitness of -0.13 ± 0.084. For Q15K, the abundance fitness was -0.109 ± 0.091. In the case of Q15W, the abundance fitness is reported as -0.194 ± 0.075. Work on Q47Y yielded an abundance fitness of 0.029 ± 0.13. Work on Q47S yielded an abundance fitness of -0.079 ± 0.054. For Q47D, the abundance fitness was 0.033 ± 0.12. Variant Q47L has an abundance fitness of -0.211 ± 0.061. For Q47N, the abundance fitness was 0.102 ± 0.095. With Q47K the abundance fitness was -0.048 ± 0.087. Q47A showed an abundance fitness of -0.101 ± 0.075. Variant Q47M has an abundance fitness of -0.11 ± 0.089. For Q45R, the abundance fitness was -0.059 ± 0.045. Q45G showed an abundance fitness of -0.17 ± 0.055. For Q45D, the abundance fitness was 0.132 ± 0.16.
